Data as given in patent publication US20140271457A1 (AbbVie / Abbott, published 2014).

Molecular target: Recombinant Human IL-13 (human, UniProt P35225 35-146, limits assumed)
Assay: Biacore SPR
How it was run: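 Kinetic constants come from global 1:1 model fitting (Rmax local) at 0.8–100 nM antigen. Flow was 50 μl/min with 5 min association and 10 min dissociation. Capture used goat anti-mouse IgG Fcγ on a CM5 chip in HBS-EP+ at 25 °C.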

Recombinant Human IL-13, sequence (P35225 35-146 limits assumed): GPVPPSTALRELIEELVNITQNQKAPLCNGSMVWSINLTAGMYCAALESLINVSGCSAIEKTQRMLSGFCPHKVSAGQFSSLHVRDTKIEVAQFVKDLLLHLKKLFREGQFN

Binder	Kd [nM]	koff [s⁻¹]	kon [M⁻¹ s⁻¹]
DVD3143 (bispecific antibody, IgG1, DVD-Ig; wt hIgG1 + kappa constants) VH: EVQLVESGGGLVQPGGSLRLSCAASGFTFSNYGVTWVRQAPGKGLEWVSMIWADGSTHYASSVKGRFTISRDNSKNTLYLQMNSLRAEDTAVYYCAREWQHGPVAYWGQGTLVTVSSGGGGSGGGGSEVQLVQSGAEVKKPGASVKVSCKASGYTFTSYWMHWVRQAPGQGLEWIGNINPKGGSNIYNEKFQGRVTMTRDTSISTAYMELSRLRSDDTAVYYCARLDYFGDSFDLWGQGTTVTVSS VL: DIQMTQSPSSLSASVGDRVTITCRASQLVSSAVAWYQQKPGKAPKLLIYWASARHTGVPSRFSGSGSGTDFTLTISSLQPEDFATYYCQQHYKTPFTFGQGTKLEIKRGGSGGGGSGDIQMTQSPSSLSASVGDRVTITCRASQGIRNYLNWYQQKPGKAPKLLIYYASNLEVGVPSRFSGSGSGTDYTLTISSLQPEDFATYYCQQDNRFPYTFGGGTKVEIKR	0.37	6.2e-05	170000
DVD3153 (bispecific antibody, IgG1, DVD-Ig; wt hIgG1 + kappa constants) VH: EVQLVESGGGLVQPGGSLRLSCAASGFTFSNYGVEWVRQAPGKGLEWVSGIWADGSTHYADTVKSRFTISRDNSKNTLYLQMNSLRAEDTAVYYCAREWQHGPVAYWGQGTLVTVSSGGGGSGGGGSEVQLVQSGAEVKKPGASVKVSCKASGYTFTSYWMHWVRQAPGQGLEWIGNINPKGGSNIYNEKFQGRVTMTRDTSISTAYMELSRLRSDDTAVYYCARLDYFGDSFDLWGQGTTVTVSS VL: DIQMTQSPSSLSASVGDRVTITCKASQLVSSAVAWYQQKPGKAPKLLIYWASTLHTGVPSRFSGSGSGTDFTLTISSLQPEDFATYYCQQHYRTPFTFGQGTKLEIKRGGSGGGGSGDIQMTQSPSSLSASVGDRVTITCRASQGIRNYLNWYQQKPGKAPKLLIYYASNLEVGVPSRFSGSGSGTDYTLTISSLQPEDFATYYCQQDNRFPYTFGGGTKVEIKR	0.45	8.2e-05	180000
DVD3087 (bispecific antibody, IgG1, DVD-Ig; wt hIgG1 + kappa constants) VH: EVQLVESGGGLVQPGGSLRLSCAASGFTFSNYGVTWVRQAPGKGLEWVSMIWADGSTHYASSVKGRFTISRDNSKNTLYLQMNSLRAEDTAVYYCAREWQHGPVAYWGQGTLVTVSSASTKGPSVFPLAPEVQLVQSGAEVKKPGASVKVSCKASGYTFTTYGVSWVRQAPGQGLEWMGEIYPGNYNTYYNEKFRGRVTMTTDTSTSTAYMELRSLRSDDTAVYYCARWRTSYFSDYGYFDYWGQGTTVTVSS VL: DIQMTQSPSSLSASVGDRVTITCRASQLVSSAVAWYQQKPGKAPKLLIYWASARHTGVPSRFSGSGSGTDFTLTISSLQPEDFATYYCQQHYKTPFTFGQGTKLEIKRTVAAPDVVMTQSPLSLPVTLGQPASISCRSSQSLVHSHGNTYLHWYQQRPGQSPRLLIYTVSNRFSGVPDRFSGSGSGTDFTLKISRVEAEDVGVYYCSQSTHVPYTFGGGTKVEIKR	< 0.02	< 1e-06	51000
DVD3097 (bispecific antibody, IgG1, DVD-Ig; wt hIgG1 + kappa constants) VH: EVQLVESGGGLVQPGGSLRLSCAASGFTFSNYGVEWVRQAPGKGLEWVSGIWADGSTHYADTVKSRFTISRDNSKNTLYLQMNSLRAEDTAVYYCAREWQHGPVAYWGQGTLVTVSSASTKGPSVFPLAPEVQLVQSGAEVKKPGASVKVSCKASGYTFTTYGVSWVRQAPGQGLEWMGEIYPGNYNTYYNEKFRGRVTMTTDTSTSTAYMELRSLRSDDTAVYYCARWRTSYFSDYGYFDYWGQGTTVTVSS VL: DIQMTQSPSSLSASVGDRVTITCKASQLVSSAVAWYQQKPGKAPKLLIYWASTLHTGVPSRFSGSGSGTDFTLTISSLQPEDFATYYCQQHYRTPFTFGQGTKLEIKRTVAAPDVVMTQSPLSLPVTLGQPASISCRSSQSLVHSHGNTYLHWYQQRPGQSPRLLIYTVSNRFSGVPDRFSGSGSGTDFTLKISRVEAEDVGVYYCSQSTHVPYTFGGGTKVEIKR	< 0.021	< 1e-06	48000
DVD3086 (bispecific antibody, IgG1, DVD-Ig; wt hIgG1 + kappa constants) VH: EVQLVESGGGLVQPGGSLRLSCAASGFTFSNYGVTWVRQAPGKGLEWVSMIWADGSTHYASSVKGRFTISRDNSKNTLYLQMNSLRAEDTAVYYCAREWQHGPVAYWGQGTLVTVSSASTKGPEVQLVQSGAEVKKPGASVKVSCKASGYTFTTYGVSWVRQAPGQGLEWMGEIYPGNYNTYYNEKFRGRVTMTTDTSTSTAYMELRSLRSDDTAVYYCARWRTSYFSDYGYFDYWGQGTTVTVSS VL: DIQMTQSPSSLSASVGDRVTITCRASQLVSSAVAWYQQKPGKAPKLLIYWASARHTGVPSRFSGSGSGTDFTLTISSLQPEDFATYYCQQHYKTPFTFGQGTKLEIKRTVAAPSVFIFPPDVVMTQSPLSLPVTLGQPASISCRSSQSLVHSHGNTYLHWYQQRPGQSPRLLIYTVSNRFSGVPDRFSGSGSGTDFTLKISRVEAEDVGVYYCSQSTHVPYTFGGGTKVEIKR	< 0.015	< 1e-06	65000
DVD3096 (bispecific antibody, IgG1, DVD-Ig; wt hIgG1 + kappa constants) VH: EVQLVESGGGLVQPGGSLRLSCAASGFTFSNYGVEWVRQAPGKGLEWVSGIWADGSTHYADTVKSRFTISRDNSKNTLYLQMNSLRAEDTAVYYCAREWQHGPVAYWGQGTLVTVSSASTKGPEVQLVQSGAEVKKPGASVKVSCKASGYTFTTYGVSWVRQAPGQGLEWMGEIYPGNYNTYYNEKFRGRVTMTTDTSTSTAYMELRSLRSDDTAVYYCARWRTSYFSDYGYFDYWGQGTTVTVSS VL: DIQMTQSPSSLSASVGDRVTITCKASQLVSSAVAWYQQKPGKAPKLLIYWASTLHTGVPSRFSGSGSGTDFTLTISSLQPEDFATYYCQQHYRTPFTFGQGTKLEIKRTVAAPSVFIFPPDVVMTQSPLSLPVTLGQPASISCRSSQSLVHSHGNTYLHWYQQRPGQSPRLLIYTVSNRFSGVPDRFSGSGSGTDFTLKISRVEAEDVGVYYCSQSTHVPYTFGGGTKVEIKR	0.00076	5.3e-08	70000
DVD3144 (bispecific antibody, IgG1, DVD-Ig; wt hIgG1 + kappa constants) VH: EVQLVESGGGLVQPGGSLRLSCAASGFTFSNYGVTWVRQAPGKGLEWVSMIWADGSTHYASSVKGRFTISRDNSKNTLYLQMNSLRAEDTAVYYCAREWQHGPVAYWGQGTLVTVSSASTKGPEVQLVQSGAEVKKPGASVKVSCKASGYTFTSYWMHWVRQAPGQGLEWIGNINPKGGSNIYNEKFQGRVTMTRDTSISTAYMELSRLRSDDTAVYYCARLDYFGDSFDLWGQGTTVTVSS VL: DIQMTQSPSSLSASVGDRVTITCRASQLVSSAVAWYQQKPGKAPKLLIYWASARHTGVPSRFSGSGSGTDFTLTISSLQPEDFATYYCQQHYKTPFTFGQGTKLEIKRTVAAPDIQMTQSPSSLSASVGDRVTITCRASQGIRNYLNWYQQKPGKAPKLLIYYASNLEVGVPSRFSGSGSGTDYTLTISSLQPEDFATYYCQQDNRFPYTFGGGTKVEIKR	0.12	7.3e-06	62000
DVD3154 (bispecific antibody, IgG1, DVD-Ig; wt hIgG1 + kappa constants) VH: EVQLVESGGGLVQPGGSLRLSCAASGFTFSNYGVEWVRQAPGKGLEWVSGIWADGSTHYADTVKSRFTISRDNSKNTLYLQMNSLRAEDTAVYYCAREWQHGPVAYWGQGTLVTVSSASTKGPEVQLVQSGAEVKKPGASVKVSCKASGYTFTSYWMHWVRQAPGQGLEWIGNINPKGGSNIYNEKFQGRVTMTRDTSISTAYMELSRLRSDDTAVYYCARLDYFGDSFDLWGQGTTVTVSS VL: DIQMTQSPSSLSASVGDRVTITCKASQLVSSAVAWYQQKPGKAPKLLIYWASTLHTGVPSRFSGSGSGTDFTLTISSLQPEDFATYYCQQHYRTPFTFGQGTKLEIKRTVAAPDIQMTQSPSSLSASVGDRVTITCRASQGIRNYLNWYQQKPGKAPKLLIYYASNLEVGVPSRFSGSGSGTDYTLTISSLQPEDFATYYCQQDNRFPYTFGGGTKVEIKR	0.58	3e-05	53000
DVD3114 (bispecific antibody, IgG1, DVD-Ig; wt hIgG1 + kappa constants) VH: EVQLVQSGAEVKKPGASVKVSCKASGYTFNNYGIIWVRQAPGQGLEWMGWINTYTGKPTYAQKFQGRVTMTTDTSTSTAYMELSSLRSEDTAVYYCARKLFNTVAVTDNAMDYWGQGTTVTVSSASTKGPEVQLVQSGAEVKKPGASVKVSCKASGYTFTTYGVSWVRQAPGQGLEWMGEIYPGNYNTYYNEKFRGRVTMTTDTSTSTAYMELRSLRSDDTAVYYCARWRTSYFSDYGYFDYWGQGTTVTVSS VL: DIQMTQSPSSLSASVGDRVTITCRASQDIENYLNWYQQKPGKAPKLLIYYTSRLQSGVPSRFSGSGSGTDFTLTISSLQPEDFATYFCQQGNTQPPTFGQGTKLEIKRTVAAPDVVMTQSPLSLPVTLGQPASISCRSSQSLVHSHGNTYLHWYQQRPGQSPRLLIYTVSNRFSGVPDRFSGSGSGTDFTLKISRVEAEDVGVYYCSQSTHVPYTFGGGTKVEIKR	0.0069	1.2e-06	170000
DVD3113 (bispecific antibody, IgG1, DVD-Ig; wt hIgG1 + kappa constants) VH: EVQLVQSGAEVKKPGASVKVSCKASGYTFNNYGIIWVRQAPGQGLEWMGWINTYTGKPTYAQKFQGRVTMTTDTSTSTAYMELSSLRSEDTAVYYCARKLFNTVAVTDNAMDYWGQGTTVTVSSGGGGSGGGGSEVQLVQSGAEVKKPGASVKVSCKASGYTFTTYGVSWVRQAPGQGLEWMGEIYPGNYNTYYNEKFRGRVTMTTDTSTSTAYMELRSLRSDDTAVYYCARWRTSYFSDYGYFDYWGQGTTVTVSS VL: DIQMTQSPSSLSASVGDRVTITCRASQDIENYLNWYQQKPGKAPKLLIYYTSRLQSGVPSRFSGSGSGTDFTLTISSLQPEDFATYFCQQGNTQPPTFGQGTKLEIKRGGSGGGGSGDVVMTQSPLSLPVTLGQPASISCRSSQSLVHSHGNTYLHWYQQRPGQSPRLLIYTVSNRFSGVPDRFSGSGSGTDFTLKISRVEAEDVGVYYCSQSTHVPYTFGGGTKVEIKR	0.015	1.2e-06	75000
DVD3092 (bispecific antibody, IgG1, DVD-Ig; wt hIgG1 + kappa constants) VH: EVQLVQSGAEVKKPGASVKVSCKASGYTFTTYGVSWVRQAPGQGLEWMGEIYPGNYNTYYNEKFRGRVTMTTDTSTSTAYMELRSLRSDDTAVYYCARWRTSYFSDYGYFDYWGQGTTVTVSSASTKGPSVFPLAPEVQLVESGGGLVQPGGSLRLSCAASGFTFSNYGVTWVRQAPGKGLEWVSMIWADGSTHYASSVKGRFTISRDNSKNTLYLQMNSLRAEDTAVYYCAREWQHGPVAYWGQGTLVTVSS VL: DVVMTQSPLSLPVTLGQPASISCRSSQSLVHSHGNTYLHWYQQRPGQSPRLLIYTVSNRFSGVPDRFSGSGSGTDFTLKISRVEAEDVGVYYCSQSTHVPYTFGGGTKVEIKRTVAAPDIQMTQSPSSLSASVGDRVTITCRASQLVSSAVAWYQQKPGKAPKLLIYWASARHTGVPSRFSGSGSGTDFTLTISSLQPEDFATYYCQQHYKTPFTFGQGTKLEIKR	0.044	2.5e-05	580000
